B1: human aldehyde oxidase 1 variant G46E (enzyme)
chain: MDRASELLFYVNGRKVIEKNVDPETMLLPYLRKKLRLTGTKYGCGEGGCGACTVMISRYNPITKRIRHHPANACLIPICSLYGAAVTTVEGIGSTHTRIHPVQERIAKCHGTQCGFCTPGMVMSIYTLLRNHPEPTLDQLTDALGGNLCRCTGYRPIIDACKTFCKTSGCCQSKENGVCCLDQGINGLPEFEEGSKTSPKLFAEEEFLPLDPTQELIFPPELMIMAEKQSQRTRVFGSERMMWFSPVTLKELLEFKFKYPQAPVIMGNTSVGPEVKFKGVFHPVIISPDRIEELSVVNHAYNGLTLGAGLSLAQVKDILADVVQKLPEEKTQMYHALLKHLGTLAGSQIRNMASLGGHIISRHPDSDLNPILAVGNCTLNLLSKEGKRQIPLNEQFLSKCPNADLKPQEILVSVNIPYSRKWEFVSAFRQAQRQENALAIVNSGMRVFFGEGDGIIRELCISYGGVGPATICAKNSCQKLIGRHWNEQMLDIACRLILNEVSLLGSAPGGKVEFKRTLIISFLFKFYLEVSQILKKMDPVHYPSLADKYESALEDLHSKHHCSTLKYQNIGPKQHPEDPIGHPIMHLSGVKHATGEAIYCDDMPLVDQELFLTFVTSSRAHAKIVSIDLSEALSMPGVVDIMTAEHLSDVNSFCFFTEAEKFLATDKVFCVGQLVCAVLADSEVQAKRAAKRVKIVYQDLEPLILTIEESIQHNSSFKPERKLEYGNVDEAFKVVDQILEGEIHMGGQEHFYMETQSMLVVPKGEDQEMDVYVSTQFPKYIQDIVASTLKLPANKVMCHVRRVGGAFGGKVLKTGIIAAVTAFAANKHGRAVRCVLERGEDMLITGGRHPYLGKYKAGFMNDGRILALDMEHYSNAGASLDESLFVIEMGLLKMDNAYKFPNLRCRGWACRTNLPSNTAFRGFGFPQAALITESCITEVAAKCGLSPEKVRIINMYKEIDQTPYKQEINAKNLIQCWRECMAMSSYSLRKVAVEKFNAENYWKKKGLAMVPLKFPVGLGSRAAGQAAALVHIYLDGSVLVTHGGIEMGQGVHTKMIQVVSRELRMPMSNVHLRGTSTETVPNANISGGSVVADLNGLAVKDACQTLLKRLEPIISKNPKGTWKDWAQTAFDESINLSAVGYFRGYESDMNWEKGEGQPFEYFVYGAACSEVEIDCLTGDHKNIRTDIVMDVGCSINPAIDIGQIEGAFIQGMGLYTIEELNYSPQGILHTRGPDQYKIPAICDMPTELHIALLPPSQNSNTLYSSKGLGESGVFLGCSVFFAIHDAVSAARQERGLHGPLTLNSPLTPEKIRMACEDKFTKMIPRDEPGSYVPWNVPI
notes: human aldehyde oxidase 1 (hAOX1), protein of 1338 amino acids, SNP-based variant G46E; construct pAF4 derived from pTHcohAOX1; also called hAOX1 G46E; pAF4; source: E. coli TP1000 (ΔmobAB), purified (nickel-nitrilotriacetic acid resin, size exclusion chromatography)
B2: human aldehyde oxidase 1 variant K1237N (enzyme)
chain: MDRASELLFYVNGRKVIEKNVDPETMLLPYLRKKLRLTGTKYGCGGGGCGACTVMISRYNPITKRIRHHPANACLIPICSLYGAAVTTVEGIGSTHTRIHPVQERIAKCHGTQCGFCTPGMVMSIYTLLRNHPEPTLDQLTDALGGNLCRCTGYRPIIDACKTFCKTSGCCQSKENGVCCLDQGINGLPEFEEGSKTSPKLFAEEEFLPLDPTQELIFPPELMIMAEKQSQRTRVFGSERMMWFSPVTLKELLEFKFKYPQAPVIMGNTSVGPEVKFKGVFHPVIISPDRIEELSVVNHAYNGLTLGAGLSLAQVKDILADVVQKLPEEKTQMYHALLKHLGTLAGSQIRNMASLGGHIISRHPDSDLNPILAVGNCTLNLLSKEGKRQIPLNEQFLSKCPNADLKPQEILVSVNIPYSRKWEFVSAFRQAQRQENALAIVNSGMRVFFGEGDGIIRELCISYGGVGPATICAKNSCQKLIGRHWNEQMLDIACRLILNEVSLLGSAPGGKVEFKRTLIISFLFKFYLEVSQILKKMDPVHYPSLADKYESALEDLHSKHHCSTLKYQNIGPKQHPEDPIGHPIMHLSGVKHATGEAIYCDDMPLVDQELFLTFVTSSRAHAKIVSIDLSEALSMPGVVDIMTAEHLSDVNSFCFFTEAEKFLATDKVFCVGQLVCAVLADSEVQAKRAAKRVKIVYQDLEPLILTIEESIQHNSSFKPERKLEYGNVDEAFKVVDQILEGEIHMGGQEHFYMETQSMLVVPKGEDQEMDVYVSTQFPKYIQDIVASTLKLPANKVMCHVRRVGGAFGGKVLKTGIIAAVTAFAANKHGRAVRCVLERGEDMLITGGRHPYLGKYKAGFMNDGRILALDMEHYSNAGASLDESLFVIEMGLLKMDNAYKFPNLRCRGWACRTNLPSNTAFRGFGFPQAALITESCITEVAAKCGLSPEKVRIINMYKEIDQTPYKQEINAKNLIQCWRECMAMSSYSLRKVAVEKFNAENYWKKKGLAMVPLKFPVGLGSRAAGQAAALVHIYLDGSVLVTHGGIEMGQGVHTKMIQVVSRELRMPMSNVHLRGTSTETVPNANISGGSVVADLNGLAVKDACQTLLKRLEPIISKNPKGTWKDWAQTAFDESINLSAVGYFRGYESDMNWEKGEGQPFEYFVYGAACSEVEIDCLTGDHKNIRTDIVMDVGCSINPAIDIGQIEGAFIQGMGLYTIEELNYSPQGILHTRGPDQYNIPAICDMPTELHIALLPPSQNSNTLYSSKGLGESGVFLGCSVFFAIHDAVSAARQERGLHGPLTLNSPLTPEKIRMACEDKFTKMIPRDEPGSYVPWNVPI
notes: human aldehyde oxidase 1 (hAOX1), protein of 1338 amino acids, SNP-based variant K1237N; construct pAF13 derived from pTHcohAOX1; also called hAOX1 K1237N; pAF13; source: E. coli TP1000 (ΔmobAB), purified (nickel-nitrilotriacetic acid resin, size exclusion chromatography)
B3: human aldehyde oxidase 1 variant G50D (enzyme)
chain: MDRASELLFYVNGRKVIEKNVDPETMLLPYLRKKLRLTGTKYGCGGGGCDACTVMISRYNPITKRIRHHPANACLIPICSLYGAAVTTVEGIGSTHTRIHPVQERIAKCHGTQCGFCTPGMVMSIYTLLRNHPEPTLDQLTDALGGNLCRCTGYRPIIDACKTFCKTSGCCQSKENGVCCLDQGINGLPEFEEGSKTSPKLFAEEEFLPLDPTQELIFPPELMIMAEKQSQRTRVFGSERMMWFSPVTLKELLEFKFKYPQAPVIMGNTSVGPEVKFKGVFHPVIISPDRIEELSVVNHAYNGLTLGAGLSLAQVKDILADVVQKLPEEKTQMYHALLKHLGTLAGSQIRNMASLGGHIISRHPDSDLNPILAVGNCTLNLLSKEGKRQIPLNEQFLSKCPNADLKPQEILVSVNIPYSRKWEFVSAFRQAQRQENALAIVNSGMRVFFGEGDGIIRELCISYGGVGPATICAKNSCQKLIGRHWNEQMLDIACRLILNEVSLLGSAPGGKVEFKRTLIISFLFKFYLEVSQILKKMDPVHYPSLADKYESALEDLHSKHHCSTLKYQNIGPKQHPEDPIGHPIMHLSGVKHATGEAIYCDDMPLVDQELFLTFVTSSRAHAKIVSIDLSEALSMPGVVDIMTAEHLSDVNSFCFFTEAEKFLATDKVFCVGQLVCAVLADSEVQAKRAAKRVKIVYQDLEPLILTIEESIQHNSSFKPERKLEYGNVDEAFKVVDQILEGEIHMGGQEHFYMETQSMLVVPKGEDQEMDVYVSTQFPKYIQDIVASTLKLPANKVMCHVRRVGGAFGGKVLKTGIIAAVTAFAANKHGRAVRCVLERGEDMLITGGRHPYLGKYKAGFMNDGRILALDMEHYSNAGASLDESLFVIEMGLLKMDNAYKFPNLRCRGWACRTNLPSNTAFRGFGFPQAALITESCITEVAAKCGLSPEKVRIINMYKEIDQTPYKQEINAKNLIQCWRECMAMSSYSLRKVAVEKFNAENYWKKKGLAMVPLKFPVGLGSRAAGQAAALVHIYLDGSVLVTHGGIEMGQGVHTKMIQVVSRELRMPMSNVHLRGTSTETVPNANISGGSVVADLNGLAVKDACQTLLKRLEPIISKNPKGTWKDWAQTAFDESINLSAVGYFRGYESDMNWEKGEGQPFEYFVYGAACSEVEIDCLTGDHKNIRTDIVMDVGCSINPAIDIGQIEGAFIQGMGLYTIEELNYSPQGILHTRGPDQYKIPAICDMPTELHIALLPPSQNSNTLYSSKGLGESGVFLGCSVFFAIHDAVSAARQERGLHGPLTLNSPLTPEKIRMACEDKFTKMIPRDEPGSYVPWNVPI
notes: human aldehyde oxidase 1 (hAOX1), protein of 1338 amino acids, SNP-based variant G50D; construct pAF5 derived from pTHcohAOX1; purified with a 10-fold lower yield than the other variants; also called hAOX1 G50D; hAOX1-G50D; source: E. coli TP1000 (ΔmobAB), purified (nickel-nitrilotriacetic acid resin, size exclusion chromatography)
B4: human aldehyde oxidase 1 variant G346R (enzyme)
chain: MDRASELLFYVNGRKVIEKNVDPETMLLPYLRKKLRLTGTKYGCGGGGCGACTVMISRYNPITKRIRHHPANACLIPICSLYGAAVTTVEGIGSTHTRIHPVQERIAKCHGTQCGFCTPGMVMSIYTLLRNHPEPTLDQLTDALGGNLCRCTGYRPIIDACKTFCKTSGCCQSKENGVCCLDQGINGLPEFEEGSKTSPKLFAEEEFLPLDPTQELIFPPELMIMAEKQSQRTRVFGSERMMWFSPVTLKELLEFKFKYPQAPVIMGNTSVGPEVKFKGVFHPVIISPDRIEELSVVNHAYNGLTLGAGLSLAQVKDILADVVQKLPEEKTQMYHALLKHLGTLARSQIRNMASLGGHIISRHPDSDLNPILAVGNCTLNLLSKEGKRQIPLNEQFLSKCPNADLKPQEILVSVNIPYSRKWEFVSAFRQAQRQENALAIVNSGMRVFFGEGDGIIRELCISYGGVGPATICAKNSCQKLIGRHWNEQMLDIACRLILNEVSLLGSAPGGKVEFKRTLIISFLFKFYLEVSQILKKMDPVHYPSLADKYESALEDLHSKHHCSTLKYQNIGPKQHPEDPIGHPIMHLSGVKHATGEAIYCDDMPLVDQELFLTFVTSSRAHAKIVSIDLSEALSMPGVVDIMTAEHLSDVNSFCFFTEAEKFLATDKVFCVGQLVCAVLADSEVQAKRAAKRVKIVYQDLEPLILTIEESIQHNSSFKPERKLEYGNVDEAFKVVDQILEGEIHMGGQEHFYMETQSMLVVPKGEDQEMDVYVSTQFPKYIQDIVASTLKLPANKVMCHVRRVGGAFGGKVLKTGIIAAVTAFAANKHGRAVRCVLERGEDMLITGGRHPYLGKYKAGFMNDGRILALDMEHYSNAGASLDESLFVIEMGLLKMDNAYKFPNLRCRGWACRTNLPSNTAFRGFGFPQAALITESCITEVAAKCGLSPEKVRIINMYKEIDQTPYKQEINAKNLIQCWRECMAMSSYSLRKVAVEKFNAENYWKKKGLAMVPLKFPVGLGSRAAGQAAALVHIYLDGSVLVTHGGIEMGQGVHTKMIQVVSRELRMPMSNVHLRGTSTETVPNANISGGSVVADLNGLAVKDACQTLLKRLEPIISKNPKGTWKDWAQTAFDESINLSAVGYFRGYESDMNWEKGEGQPFEYFVYGAACSEVEIDCLTGDHKNIRTDIVMDVGCSINPAIDIGQIEGAFIQGMGLYTIEELNYSPQGILHTRGPDQYKIPAICDMPTELHIALLPPSQNSNTLYSSKGLGESGVFLGCSVFFAIHDAVSAARQERGLHGPLTLNSPLTPEKIRMACEDKFTKMIPRDEPGSYVPWNVPI
notes: human aldehyde oxidase 1 (hAOX1), protein of 1338 amino acids, SNP-based variant G346R; construct pAF6 derived from pTHcohAOX1; also called hAOX1 G346R; pAF6; source: E. coli TP1000 (ΔmobAB), purified (nickel-nitrilotriacetic acid resin, size exclusion chromatography)

Biological target: the molecule itself
Test: SEC; size exclusion chromatography on a Superdex 200 10/300 GL column after nickel-NTA purification; data not shown

Stoichiometry N, 2:
B1
B2
B3
B4
